{"source": "patent US6723838", "proteins": {"B1": {"name": "GST fusion protein of the GAP domain (266-521) of SYNGAP (protein)", "chain": "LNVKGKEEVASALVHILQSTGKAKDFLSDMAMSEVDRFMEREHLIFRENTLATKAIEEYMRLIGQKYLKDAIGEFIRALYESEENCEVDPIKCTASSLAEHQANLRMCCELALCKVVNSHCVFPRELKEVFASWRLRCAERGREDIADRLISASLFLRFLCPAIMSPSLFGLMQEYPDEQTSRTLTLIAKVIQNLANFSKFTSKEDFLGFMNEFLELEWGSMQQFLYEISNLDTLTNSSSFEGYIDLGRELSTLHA"}}, "molecular_target": "purified H-ras GST fusion protein [GST: P08515]", "sequence (P08515 whole entry, looked up, the tested form may be a part)": "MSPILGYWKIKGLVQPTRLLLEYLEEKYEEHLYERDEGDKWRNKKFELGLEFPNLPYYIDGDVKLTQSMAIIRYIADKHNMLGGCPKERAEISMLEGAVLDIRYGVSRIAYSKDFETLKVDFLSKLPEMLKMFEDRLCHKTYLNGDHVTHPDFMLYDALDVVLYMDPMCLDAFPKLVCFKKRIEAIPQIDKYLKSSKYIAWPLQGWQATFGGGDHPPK"}
{"protein": "B1", "values": [{"measurement": "GTPase activity of Ras ([gamma-32P]-GTP filter assay)", "value": "addition of the GST fusion protein of the GAP domain of SYNGAP dramatically stimulated the GTPase activity of Ras"}]}
